# Reference: paper PMC5500003, “RNA stores tau reversibly in complex coacervates”
# B1: RNA43 (ssRNA)
# RNA: CCUGGUUUUUAAGGAGUGUCGCCAGAGUGCCGCGAAUGAAAAA
# Molecular target: tau 4R2N (Homo sapiens, UniProt P10636-8 1-441)
# Assay: EMSA; Hill coefficient 2.6; EMSA: 100 mM sodium acetate pH 7.0, 0.5 mM EDTA, 0.5 mM MgCl2, 0.01% IGEPAL CA-630, RNase inhibitor, 37 C 10 min, TBE 8% gel; ITC: 20 mM ammonium acetate pH 7
# Conditions: protein: recombinant; chain copies: 2; label: 3' biotin kit RNA
# tau 4R2N, sequence (P10636 other isoform, or with tags, fused parts or gaps): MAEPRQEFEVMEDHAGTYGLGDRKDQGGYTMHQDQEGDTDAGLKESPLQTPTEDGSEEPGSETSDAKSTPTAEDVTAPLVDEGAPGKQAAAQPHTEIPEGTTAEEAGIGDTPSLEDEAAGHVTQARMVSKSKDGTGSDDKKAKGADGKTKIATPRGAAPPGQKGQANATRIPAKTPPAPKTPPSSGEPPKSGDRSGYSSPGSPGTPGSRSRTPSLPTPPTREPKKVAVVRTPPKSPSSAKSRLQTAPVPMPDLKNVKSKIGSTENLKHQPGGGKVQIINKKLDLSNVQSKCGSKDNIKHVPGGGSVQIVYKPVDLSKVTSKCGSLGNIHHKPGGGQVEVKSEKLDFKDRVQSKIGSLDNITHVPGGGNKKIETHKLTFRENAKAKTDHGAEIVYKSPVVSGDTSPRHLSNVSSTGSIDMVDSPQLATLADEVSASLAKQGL
binder,measurement,value
B1,Kd,832 ± 94 nM
